Consider 2 molecules from paper doi:10.1101/2024.11.07.622398 (bioRxiv, 2024).

The target of one assay is T1, mouse UBA7 (mouse, UniProt Q9DBK7 1-977).
T1 sequence (looked up): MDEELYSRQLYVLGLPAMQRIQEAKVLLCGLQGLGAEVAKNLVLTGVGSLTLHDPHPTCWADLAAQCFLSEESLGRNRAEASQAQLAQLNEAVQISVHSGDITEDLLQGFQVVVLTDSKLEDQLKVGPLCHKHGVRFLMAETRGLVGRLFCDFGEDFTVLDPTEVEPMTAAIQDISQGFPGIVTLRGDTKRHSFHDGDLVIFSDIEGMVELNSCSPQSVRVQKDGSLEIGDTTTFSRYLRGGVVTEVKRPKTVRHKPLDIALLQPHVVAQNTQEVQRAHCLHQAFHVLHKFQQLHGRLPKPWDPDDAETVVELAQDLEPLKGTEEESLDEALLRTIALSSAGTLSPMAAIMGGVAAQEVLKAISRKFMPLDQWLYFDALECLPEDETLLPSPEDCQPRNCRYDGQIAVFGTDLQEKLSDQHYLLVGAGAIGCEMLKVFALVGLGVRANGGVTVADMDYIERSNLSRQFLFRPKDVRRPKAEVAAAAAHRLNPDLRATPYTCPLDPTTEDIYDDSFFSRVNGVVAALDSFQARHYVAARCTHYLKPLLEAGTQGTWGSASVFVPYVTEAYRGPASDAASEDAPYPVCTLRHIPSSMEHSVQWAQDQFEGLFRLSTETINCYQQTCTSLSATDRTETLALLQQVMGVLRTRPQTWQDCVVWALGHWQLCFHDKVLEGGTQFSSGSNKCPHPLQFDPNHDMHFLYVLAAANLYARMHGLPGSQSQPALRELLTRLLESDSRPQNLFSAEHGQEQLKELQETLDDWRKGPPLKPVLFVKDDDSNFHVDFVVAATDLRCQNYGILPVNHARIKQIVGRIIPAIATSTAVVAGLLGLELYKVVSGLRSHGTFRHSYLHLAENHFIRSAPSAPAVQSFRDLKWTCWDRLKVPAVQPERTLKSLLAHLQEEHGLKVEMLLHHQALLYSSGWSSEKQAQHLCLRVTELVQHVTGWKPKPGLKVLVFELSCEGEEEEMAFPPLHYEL
Briefly: disulfide complex formation on non-reducing SDS-PAGE.

A further assay deals with T2, human UBA7 (human, UniProt P41226 1-1012).
T2 sequence: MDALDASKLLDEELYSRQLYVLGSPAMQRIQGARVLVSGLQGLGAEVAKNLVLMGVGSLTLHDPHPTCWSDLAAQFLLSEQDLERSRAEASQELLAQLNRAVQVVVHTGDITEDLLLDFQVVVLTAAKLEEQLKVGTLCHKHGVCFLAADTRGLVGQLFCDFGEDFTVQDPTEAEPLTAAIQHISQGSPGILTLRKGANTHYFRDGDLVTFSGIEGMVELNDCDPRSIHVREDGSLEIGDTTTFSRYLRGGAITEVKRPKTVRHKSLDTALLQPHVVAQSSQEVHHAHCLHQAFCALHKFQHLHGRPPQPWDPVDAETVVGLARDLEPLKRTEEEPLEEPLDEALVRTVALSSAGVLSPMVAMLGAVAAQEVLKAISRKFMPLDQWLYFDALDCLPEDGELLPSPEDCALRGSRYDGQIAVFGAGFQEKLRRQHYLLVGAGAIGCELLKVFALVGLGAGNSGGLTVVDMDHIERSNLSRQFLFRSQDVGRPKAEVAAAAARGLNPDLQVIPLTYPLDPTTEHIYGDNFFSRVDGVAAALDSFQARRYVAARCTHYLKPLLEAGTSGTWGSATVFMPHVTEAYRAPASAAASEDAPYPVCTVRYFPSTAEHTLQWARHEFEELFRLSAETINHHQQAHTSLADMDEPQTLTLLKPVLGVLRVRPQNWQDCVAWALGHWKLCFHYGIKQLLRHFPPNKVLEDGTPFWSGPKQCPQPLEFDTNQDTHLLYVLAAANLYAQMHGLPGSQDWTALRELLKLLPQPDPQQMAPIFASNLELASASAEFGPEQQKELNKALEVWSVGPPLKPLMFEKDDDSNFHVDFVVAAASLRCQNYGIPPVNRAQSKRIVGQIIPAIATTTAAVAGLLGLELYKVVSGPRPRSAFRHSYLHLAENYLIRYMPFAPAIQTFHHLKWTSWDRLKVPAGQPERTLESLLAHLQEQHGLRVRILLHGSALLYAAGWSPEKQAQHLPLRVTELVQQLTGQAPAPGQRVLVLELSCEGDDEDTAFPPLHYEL
The description is as above.

B1: mouse UBE2L6 (enzyme, UniProt Q9QZU9 1-153, looked up)
chain: MMASKRVAKELESLSKELPPYLRQLSSDDANVLVWHMLLLPDQLPYGLKAFQVRIDFPREYPFKPPTLRFTTKIYHPNVREDGLVCLPLISNENWKPYTKPYQVLEALNVLVSKPNLEEPVRLELADLLTQNPEMFRKKAEEFTLKFGVDRPS
For the molecule B1, in the assay with mouse UBA7, the binding result is recorded as “binds”.

B2: human UBE2L6 (enzyme)
chain: not shown
For the molecule B2, the binding result in the assay with human UBA7 is “binds”.
